Results reported in US20250296986A1.

How the values were obtained:
human FcγRIIb (human) = human FcγRIIb (human) (UniProt P31994); assay: compared with fucosylated wild-type human IgG1; MSD per FIGS. 10A-10C
[1] = biological target: human FcγRIIa (R131 allele) (human) (UniProt P12318); assay: as above
[2] = biological target: human FcγRIIa (H131 allele) (human) (UniProt P12318); assay: as above
human C1q (human) = human C1q (human) (UniProt P02745); assay: C1q binding assay (FIG. 15: antibody Fc captured on Octet sensor, human C1q in solution)
Chain of human C1q (human) (P02745 23-245 limits assumed, chain 1 of 3): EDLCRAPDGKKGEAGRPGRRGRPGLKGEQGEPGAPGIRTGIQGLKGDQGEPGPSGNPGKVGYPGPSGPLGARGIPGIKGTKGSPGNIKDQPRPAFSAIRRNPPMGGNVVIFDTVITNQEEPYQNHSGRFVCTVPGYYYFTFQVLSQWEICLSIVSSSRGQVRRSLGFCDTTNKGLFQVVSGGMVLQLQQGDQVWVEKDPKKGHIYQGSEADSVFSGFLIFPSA
Chain of human C1q (human) (P02746 28-253 limits assumed, chain 2 of 3, further chain): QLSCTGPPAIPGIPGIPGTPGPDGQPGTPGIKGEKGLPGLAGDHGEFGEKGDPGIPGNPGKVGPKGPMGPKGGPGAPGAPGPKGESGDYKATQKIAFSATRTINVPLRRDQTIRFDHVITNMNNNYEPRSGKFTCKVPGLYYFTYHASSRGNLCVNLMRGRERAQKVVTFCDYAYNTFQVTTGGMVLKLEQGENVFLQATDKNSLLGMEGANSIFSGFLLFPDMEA
Chain of human C1q (human) (P02747 29-245 limits assumed, chain 3 of 3, further chain): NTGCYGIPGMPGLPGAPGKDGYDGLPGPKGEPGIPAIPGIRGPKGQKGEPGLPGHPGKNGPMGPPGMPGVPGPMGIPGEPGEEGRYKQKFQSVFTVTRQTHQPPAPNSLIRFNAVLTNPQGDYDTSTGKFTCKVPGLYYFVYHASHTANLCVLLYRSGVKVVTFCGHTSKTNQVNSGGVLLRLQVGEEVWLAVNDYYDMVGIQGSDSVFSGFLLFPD

Chain of human FcγRIIb (human) (P31994 43-217 limits assumed): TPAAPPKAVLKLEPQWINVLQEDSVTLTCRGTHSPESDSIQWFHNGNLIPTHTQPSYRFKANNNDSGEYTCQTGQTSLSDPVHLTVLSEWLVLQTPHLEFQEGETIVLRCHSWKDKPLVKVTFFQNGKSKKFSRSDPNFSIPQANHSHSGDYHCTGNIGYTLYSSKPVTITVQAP
Chain of human FcγRIIa (H131 allele) (human) (P12318 34-218 limits assumed): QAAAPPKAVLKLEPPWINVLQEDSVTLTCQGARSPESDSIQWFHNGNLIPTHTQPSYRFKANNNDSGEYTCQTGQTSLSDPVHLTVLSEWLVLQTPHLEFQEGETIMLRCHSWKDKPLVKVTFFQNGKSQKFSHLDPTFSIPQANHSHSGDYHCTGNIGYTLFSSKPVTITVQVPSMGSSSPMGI
Chain of human FcγRIIa (R131 allele) (human) (P12318 34-218 H167R limits assumed): as the sequence (P12318 34-218 limits assumed) above, with H134R counted along it

Row | Substance | fold-change in binding vs fucosylated wild-type human IgG1 (human FcγRIIb (human)) | fold-change in binding vs fucosylated wild-type human IgG1 [1] | fold-change in binding vs fucosylated wild-type human IgG1 [2] | C1q binding relative to reference IgG1 antibody bearing M428L and N434S mutations only (human C1q (human))
1 | G236A_R292P (antibody) | < 0.5 fold | – | – | –
2 | G236A_R292P_Y300L (antibody) | – | > 2.7 fold | > 14 fold | –
3 | G236A_Y300L (antibody) | – | > 4 fold | > 18 fold | –
4 | G236S_G420V_G446E_L309T (antibody) | < 0.5 fold | – | – | –
5 | afucosylated Fc variant antibodies bearing the G236A ("GA") mutation (antibody) | – | – | – | 0.3 fold (×)
